Measurements from patent US20260008817A1, “CYCLIC PEPTIDE OR SALT THEREOF, AND USES THEREOF” (FUJIFILM Corporation, priority 2023, published 2026).
Positions of bridges follow the written chain, without caps; N, C: chain ends. No end group written: not given here. COCH2 = acetyl group that carries the bridge

Each substance was assayed against T1, Recombinant Human FGFR1 alpha (IIIc) Fc Chimera Protein (Homo sapiens, UniProt P11362) (assay: ELISA binding affinity of enzymatically synthesized peptide to FGFR). Settings: ELISA luminescence signal at 10 nmol/L peptide, SEQ ID NO: 239 standardized to 1; enzyme synthesis product.
T1 construct: purchased R&D systems 658-FR-050
T1 sequence (P11362 with tags, fused parts or gaps limits assumed): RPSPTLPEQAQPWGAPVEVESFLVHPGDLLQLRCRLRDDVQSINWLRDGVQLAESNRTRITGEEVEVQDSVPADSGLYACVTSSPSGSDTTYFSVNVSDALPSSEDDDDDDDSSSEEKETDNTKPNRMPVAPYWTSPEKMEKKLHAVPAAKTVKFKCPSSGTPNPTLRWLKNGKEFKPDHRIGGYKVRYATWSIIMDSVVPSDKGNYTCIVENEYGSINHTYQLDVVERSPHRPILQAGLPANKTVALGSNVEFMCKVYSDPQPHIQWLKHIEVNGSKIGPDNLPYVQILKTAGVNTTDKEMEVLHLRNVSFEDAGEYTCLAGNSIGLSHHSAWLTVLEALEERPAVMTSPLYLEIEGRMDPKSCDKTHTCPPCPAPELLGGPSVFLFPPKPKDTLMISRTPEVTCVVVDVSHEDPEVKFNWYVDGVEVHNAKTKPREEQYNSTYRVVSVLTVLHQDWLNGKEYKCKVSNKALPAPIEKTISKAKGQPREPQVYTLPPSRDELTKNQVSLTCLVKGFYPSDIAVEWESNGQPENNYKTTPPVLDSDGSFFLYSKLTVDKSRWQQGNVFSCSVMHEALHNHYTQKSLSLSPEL
How it was run: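 Cell-free PUREfrex-translated cyclic peptides (Myc/HiBiT-tagged, quantified by HiBiT luminescence) bound 3 h at room temperature to immobilized FGFR1α(IIIc)-Fc, detected with anti-Myc and chemiluminescence. FGFR-specific signal at 10 nmol/L normalized to a reference cyclic peptide and graded A–D.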
“307 (FCVYTFDAHAHSLDAALTK(COCH2)I; thioether 2-19 (inferred)) [compound 307]” was tested, and the “Evaluation result of binding affinity to FGFR” value (“Evaluation result” for short) was “A (0.7 or more)”. For “60 (ICTYTFDAHAHSLHAALTK(COCH2)I; thioether 2-19 (inferred)) [compound 60]”, the “Evaluation result” value was “C (0.1 or more and less than 0.5)”. “275 (LCPLYAWQTLYQYGWK(COCH2)V; thioether 2-16 (inferred)) [compound 275]” was tested, and the “Evaluation result” value was “A (0.7 or more)”. With “55 (ICAYTFDAHAHSLHAALTK(COCH2)I; thioether 2-19 (inferred)) [compound 55]” the “Evaluation result” value was “C (0.1 or more and less than 0.5)”. In the case of “322 (CVYTFDAHAHSLDAALTK(COCH2)I; thioether 1-18 (inferred)) [compound 322]”, the “Evaluation result” value is reported as “A (0.7 or more)”. “85 (ICVYTFYAHAHSLHAALTK(COCH2)I; thioether 2-19 (inferred)) [compound 85]” was tested, and the “Evaluation result” value was “C (0.1 or more and less than 0.5)”. “173 (ICVYTFDAHAHSEHAALTK(COCH2)I; thioether 2-19 (inferred)) [compound 173]” was tested, and the “Evaluation result” value was “C (0.1 or more and less than 0.5)”. In the case of “223 (ICVYTFDAHAHSLHAALRK(COCH2)I; thioether 2-19 (inferred)) [compound 223]”, the “Evaluation result” value is reported as “A (0.7 or more)”. For “97 (ICVYTFDQHAHSLHAALTK(COCH2)I; thioether 2-19 (inferred)) [compound 97]”, the “Evaluation result” value was “A (0.7 or more)”. For “178 (ICVYTFDAHAHSLPAALTK(COCH2)I; thioether 2-19 (inferred)) [compound 178]”, the “Evaluation result” value was “A (0.7 or more)”. With “208 (ICVYTFDAHAHSLHAVLTK(COCH2)I; thioether 2-19 (inferred)) [compound 208]” the “Evaluation result” value was “C (0.1 or more and less than 0.5)”. In the case of “311 (ICVYTFDAHAQSLHDALTK(COCH2)I; thioether 2-19 (inferred)) [compound 311]”, the “Evaluation result” value is reported as “A (0.7 or more)”. “78 (ICVYTSDAHAHSLHAALTK(COCH2)I; thioether 2-19 (inferred)) [compound 78]” was tested, and the “Evaluation result” value was “C (0.1 or more and less than 0.5)”. With “268 (SCIYQWDYVHWPIKL; Description of Artificial Sequence: Cyclic peptide) [compound 268]” the “Evaluation result” value was “C (0.1 or more and less than 0.5)”. “137 (ICVYTFDAHAFSLHAALTKI; Description of Artificial Sequence: Cyclic peptide) [compound 137]” was tested, and the “Evaluation result” value was “C (0.1 or more and less than 0.5)”. With “211 (ICVYTFDAHAHSLHAAVTK(COCH2)I; thioether 2-19 (inferred)) [compound 211]” the “Evaluation result” value was “C (0.1 or more and less than 0.5)”. With “266 (DCIWQWHPWSGYTKL; Description of Artificial Sequence: Cyclic peptide) [compound 266]” the “Evaluation result” value was “A (0.7 or more)”. For “195 (ICVYTFDAHAHSLHVALTK(COCH2)I; thioether 2-19 (inferred)) [compound 195]”, the “Evaluation result” value was “C (0.1 or more and less than 0.5)”. In the case of “127 (ICVYTFDAHDHSLHAALTKI; Description of Artificial Sequence: Cyclic peptide) [compound 127]”, the “Evaluation result” value is reported as “C (0.1 or more and less than 0.5)”. With “225 (ICVYTFDAHAHSLHAALTK(COCH2)A; thioether 2-19 (inferred)) [compound 225]” the “Evaluation result” value was “B (0.5 or more and less than 0.7)”. In the case of “123 (ICVYTFDAHWHSLHAALTKI; Description of Artificial Sequence: Cyclic peptide) [compound 123]”, the “Evaluation result” value is reported as “C (0.1 or more and less than 0.5)”. For “242 (ACGVHQWEIGEWFGYRYYYK(COCH2)P; thioether 2-20 (inferred)) [compound 242]”, the “Evaluation result” value was “B (0.5 or more and less than 0.7)”. In the case of “260 (ICREVIVGSLYTWDGNRGFFKV; Description of Artificial Sequence: Cyclic peptide) [compound 260]”, the “Evaluation result” value is reported as “C (0.1 or more and less than 0.5)”. In the case of “66 (ICVYLFDAHAHSLHAALTK(COCH2)I; thioether 2-19 (inferred)) [compound 66]”, the “Evaluation result” value is reported as “C (0.1 or more and less than 0.5)”. In the case of “314 (FCVYTFDAHAHSLHDALNK(COCH2)I; thioether 2-19 (inferred)) [compound 314]”, the “Evaluation result” value is reported as “A (0.7 or more)”. With “313 (FCVYTFDAHAHSLDAALNK(COCH2)I; thioether 2-19 (inferred)) [compound 313]” the “Evaluation result” value was “A (0.7 or more)”. With “150 (ICVYTFDAHAHILHAALTK(COCH2)I; thioether 2-19 (inferred)) [compound 150]” the “Evaluation result” value was “C (0.1 or more and less than 0.5)”. With “94 (ICVYTFDYHAHSLHAALTK(COCH2)I; thioether 2-19 (inferred)) [compound 94]” the “Evaluation result” value was “C (0.1 or more and less than 0.5)”. With “301 (ICVYTFDAHAHSLHDALNK(COCH2)Q; thioether 2-19 (inferred)) [compound 301]” the “Evaluation result” value was “A (0.7 or more)”. “122 (ICVYTFDAHYHSLHAALTKI; Description of Artificial Sequence: Cyclic peptide) [compound 122]” was tested, and the “Evaluation result” value was “C (0.1 or more and less than 0.5)”. “109 (ICVYTFDAYAHSLHAALTKI; Description of Artificial Sequence: Cyclic peptide) [compound 109]” was tested, and the “Evaluation result” value was “B (0.5 or more and less than 0.7)”. For “147 (ICVYTFDAHAHALHAALTK(COCH2)I; thioether 2-19 (inferred)) [compound 147]”, the “Evaluation result” value was “B (0.5 or more and less than 0.7)”. For “310 (ICVYTFDAHAQSLDAALTK(COCH2)I; thioether 2-19 (inferred)) [compound 310]”, the “Evaluation result” value was “A (0.7 or more)”. For “241 (HCKLYSYPLWYWPKWVFQTK(COCH2)E; thioether 2-20 (inferred)) [compound 241]”, the “Evaluation result” value was “C (0.1 or more and less than 0.5)”. For “124 (ICVYTFDAHQHSLHAALTKI; Description of Artificial Sequence: Cyclic peptide) [compound 124]”, the “Evaluation result” value was “B (0.5 or more and less than 0.7)”. With “76 (ICVYTYDAHAHSLHAALTK(COCH2)I; thioether 2-19 (inferred)) [compound 76]” the “Evaluation result” value was “B (0.5 or more and less than 0.7)”. In the case of “204 (ICVYTFDAHAHSLHEALTK(COCH2)I; thioether 2-19 (inferred)) [compound 204]”, the “Evaluation result” value is reported as “A (0.7 or more)”. With “180 (ICVYTFDAHAHSLIAALTK(COCH2)I; thioether 2-19 (inferred)) [compound 180]” the “Evaluation result” value was “B (0.5 or more and less than 0.7)”. For “304 (ICVYTFDAHAHSLDDALTK(COCH2)Q; thioether 2-19 (inferred)) [compound 304]”, the “Evaluation result” value was “A (0.7 or more)”. In the case of “88 (ICVYTFSAHAHSLHAALTK(COCH2)I; thioether 2-19 (inferred)) [compound 88]”, the “Evaluation result” value is reported as “C (0.1 or more and less than 0.5)”. “155 (ICVYTFDAHAHNLHAALTK(COCH2)I; thioether 2-19 (inferred)) [compound 155]” was tested, and the “Evaluation result” value was “A (0.7 or more)”. In the case of “222 (ICVYTFDAHAHSLHAALEK(COCH2)I; thioether 2-19 (inferred)) [compound 222]”, the “Evaluation result” value is reported as “C (0.1 or more and less than 0.5)”. For “230 (ICVYTFDAHAHSLHAALTK(COCH2)W; thioether 2-19 (inferred)) [compound 230]”, the “Evaluation result” value was “A (0.7 or more)”. “46 (WCVYTFDAHAHSLHAALTK(COCH2)I; thioether 2-19 (inferred)) [compound 46]” was tested, and the “Evaluation result” value was “B (0.5 or more and less than 0.7)”. For “110 (ICVYTFDAWAHSLHAALTKI; Description of Artificial Sequence: Cyclic peptide) [compound 110]”, the “Evaluation result” value was “C (0.1 or more and less than 0.5)”. “108 (ICVYTFDAFAHSLHAALTKI; Description of Artificial Sequence: Cyclic peptide) [compound 108]” was tested, and the “Evaluation result” value was “B (0.5 or more and less than 0.7)”. “154 (ICVYTFDAHAHWLHAALTK(COCH2)I; thioether 2-19 (inferred)) [compound 154]” was tested, and the “Evaluation result” value was “C (0.1 or more and less than 0.5)”. For “163 (ICVYTFDAHAHSGHAALTK(COCH2)I; thioether 2-19 (inferred)) [compound 163]”, the “Evaluation result” value was “C (0.1 or more and less than 0.5)”. For “146 (ICVYTFDAHARSLHAALTK(COCH2)I; thioether 2-19 (inferred)) [compound 146]”, the “Evaluation result” value was “A (0.7 or more)”. With “61 (ICVFTFDAHAHSLHAALTK(COCH2)I; thioether 2-19 (inferred)) [compound 61]” the “Evaluation result” value was “C (0.1 or more and less than 0.5)”. In the case of “293 (ICVYTFDAHAHSLDAALTK(COCH2)V; thioether 2-19 (inferred)) [compound 293]”, the “Evaluation result” value is reported as “A (0.7 or more)”. For “296 (ICVYTFDAHAHSLDAALNKQ; not fully specified (residue 19, bridges)) [compound 296]”, the “Evaluation result” value was “A (0.7 or more)”. In the case of “135 (ICVYTFDAHAISLHAALTKI; Description of Artificial Sequence: Cyclic peptide) [compound 135]”, the “Evaluation result” value is reported as “B (0.5 or more and less than 0.7)”. With “205 (ICVYTFDAHAHSLHRALTK(COCH2)I; thioether 2-19 (inferred)) [compound 205]” the “Evaluation result” value was “A (0.7 or more)”. In the case of “43 (VCVYTFDAHAHSLHAALTK(COCH2)I; thioether 2-19 (inferred)) [compound 43]”, the “Evaluation result” value is reported as “A (0.7 or more)”.
